Assay results reported in article PMC9512702.
pKd: −log10 of the molar value.

How the values were obtained:
[1] = target: mammalian expressed RBD (mRBD) of SARS-CoV-2 spike (SARS-CoV-2) (UniProt P0DTC2); test: SPR
[2] = target: mammalian expressed RBD (mRBD) of SARS-CoV-2 spike (SARS-CoV-2) (UniProt P0DTC2); test: SEC-MALS
[3] = target: mammalian expressed RBD (mRBD) of SARS-CoV-2 spike (SARS-CoV-2) (UniProt P0DTC2); test: nanoDSF thermal shift

LCB1 (designed binder)
pKd [1]: 10.38
stoichiometry N [2]: 1 LCB1:RBD
other [3]: 16 °C
